From patent publication US20140271651A1 (AbbVie / Abbott, published 2014)

Target: T1, GP73-hFc (human GP73 amino acids 63 to 400 fused at the C-terminus to human IgG1 Fc) (human)
T1 construct: Expressed in HEK293F, CHO or HepG2 cells; the host is named under assay; also called HEK expressed GP73-hFc; CHO expressed GP73-hFc
T1 chain: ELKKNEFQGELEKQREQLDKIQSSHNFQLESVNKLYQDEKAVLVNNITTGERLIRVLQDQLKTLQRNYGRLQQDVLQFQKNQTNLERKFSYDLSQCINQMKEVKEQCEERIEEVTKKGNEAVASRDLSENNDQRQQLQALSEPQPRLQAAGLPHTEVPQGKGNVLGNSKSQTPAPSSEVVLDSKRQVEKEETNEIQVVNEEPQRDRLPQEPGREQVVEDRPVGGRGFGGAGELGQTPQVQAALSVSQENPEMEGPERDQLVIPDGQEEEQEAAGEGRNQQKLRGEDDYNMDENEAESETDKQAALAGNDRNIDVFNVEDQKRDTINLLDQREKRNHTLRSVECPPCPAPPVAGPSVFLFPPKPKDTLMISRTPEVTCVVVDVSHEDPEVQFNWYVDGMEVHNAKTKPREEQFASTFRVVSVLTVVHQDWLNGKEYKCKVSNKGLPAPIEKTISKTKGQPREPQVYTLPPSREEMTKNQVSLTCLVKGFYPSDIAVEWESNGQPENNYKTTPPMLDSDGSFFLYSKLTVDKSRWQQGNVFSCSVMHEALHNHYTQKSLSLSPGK
Experiment: SPR Biacore 2000, mAb captured on rabbit anti-mouse IgG, HEK GP73-hFc analyte 0.412-100 nM, 1:1 fit; standard error 2 × 10^-5, larger than the value; dissociation hardly resolved
Protocol: First, an approximately 13,000-15,000 RU rabbit anti-mouse IgG Capture Biosensor was created by amine-coupling rabbit anti-mouse IgG antibody (GE Healthcare) to a CM5 biosensor chip (GE Healthcare) via EDC/NHS/ethanolamine chemistry provided in an Amine Coupling Kit (GE Healthcare) after pre-treating the biosensor with duplicate injections of 100 mM HCl, 50 mM NaOH, and 0.1% SDS. Purified GP73 antibody and antigen (HEK GP73-hFc) were diluted into a running buffer (hereinafter “running buffer”) composed of HBS-EP buffer (GE Healthcare) supplemented with 0.1% BSA and 0.1% CM-Dextran. Each GP73 antibody was diluted to 1 μg/mL. The GP73-hFc antigen was diluted to concentrations of 0.412 to 100 nM using a 3-fold dilution series assuming an oligomeric molecular weight of 490 kDa (Abbott Laboratories).
The GP73-hFc antigen program was as follows. After equilibrating the rabbit anti-mouse IgG Capture Biosensor for 3 min at 5 μL/minute with running buffer, GP73 antibody (7-14 μL) was injected over individual flow cells with one flow cell being left blank as a reference flow cell. […] The binding kinetics (association and dissociation) were monitored via sensorgrams during antigen injection and running buffer re-equilibration. […] Standard errors of determined values are reported in parentheses with respect to the smallest number place value.

B1: anti-GP73 monoclonal antibody 1B-4971 (antibody, V domains shown)
VH: QVQLQQSGPALVKPGASVKMSCKASGYTFTNYVIHWVKQKPGQGLERIGYIWPYNDGTKFNEKFKGKATLTSDKSSSTAYMELSSLTSEDSAVYYCSSQQLAYWGQGTTLTVSS
VL: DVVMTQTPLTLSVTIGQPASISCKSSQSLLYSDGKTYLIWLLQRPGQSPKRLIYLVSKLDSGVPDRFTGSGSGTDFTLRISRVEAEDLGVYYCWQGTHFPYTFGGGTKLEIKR
notes: Biotin labelled in some assays; also called mAb 1B-4971; 1B-4971-Bt
- koff: ≤ 1e-05 s⁻¹
